Experimental data: patent publication US20240035010, “COMPOSITIONS COMPRISING A VARIANT POLYPEPTIDE AND USES THEREOF” (Arbor Biotechnologies, Inc., published 2024)
Where a chain is given by its changes, count along the chain named.

Experiments:
Experiment in all cases: cell_activity; PAM 5'-ATTG-3'
Conditions in all cases: tags: pcDNA3.1 expression
[1] = target: T1, variant nuclease L38G combination (P14R, D32R, I61R, E311R, L38G)
T1 chain: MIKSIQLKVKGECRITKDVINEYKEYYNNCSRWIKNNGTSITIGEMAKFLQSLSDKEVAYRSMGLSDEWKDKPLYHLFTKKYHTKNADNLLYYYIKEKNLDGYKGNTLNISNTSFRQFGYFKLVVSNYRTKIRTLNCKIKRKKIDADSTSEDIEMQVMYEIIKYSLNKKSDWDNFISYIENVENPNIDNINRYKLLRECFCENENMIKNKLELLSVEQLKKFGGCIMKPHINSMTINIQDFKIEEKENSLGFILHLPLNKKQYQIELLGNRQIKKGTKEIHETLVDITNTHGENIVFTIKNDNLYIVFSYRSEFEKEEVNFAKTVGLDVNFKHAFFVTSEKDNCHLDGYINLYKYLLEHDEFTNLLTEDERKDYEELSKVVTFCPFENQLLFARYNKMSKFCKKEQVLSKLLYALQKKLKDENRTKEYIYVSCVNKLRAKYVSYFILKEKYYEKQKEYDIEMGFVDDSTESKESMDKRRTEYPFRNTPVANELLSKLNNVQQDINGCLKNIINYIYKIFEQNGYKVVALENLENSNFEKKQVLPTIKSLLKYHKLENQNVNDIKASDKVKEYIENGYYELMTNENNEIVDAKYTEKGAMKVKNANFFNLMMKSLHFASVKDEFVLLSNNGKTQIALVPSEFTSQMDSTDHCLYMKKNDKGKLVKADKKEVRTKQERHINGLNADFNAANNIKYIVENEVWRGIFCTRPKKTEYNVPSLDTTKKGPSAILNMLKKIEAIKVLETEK

[2] = target: T2, variant nuclease E154G combination (P14R, D32R, I61R, E311R, E154G)
T2 chain: T1 chain with G38L, E154G

[3] = target: T3, variant nuclease D55G/E736G combination (P14R, D32R, I61R, E311R, D55G, E736G)
T3 chain: T1 chain with G38L, D55G, E736G

B1: EMX1 crRNA ; EMX1 target (ssRNA ; dsDNA)
RNA: CUUGUUGUAUAUGUCCUUUUAUAGGUAUUAAACAACCCGCCGCUUCCUGAGCCAUC
DNA 1: CCGCCGCTTCCTGAGCCATC
DNA 2: GATGGCTCAGGAAGCGGCGG
indel editing activity [1]: 0.16 fold of WT | indel editing activity [2]: 6.04 fold of WT | indel editing activity [3]: 10.5 fold of WT
